Reference: patent US20110165265A1, “TRAIL VARIANTS FOR TREATING CANCER” (FUNDACIÓ GENÒMICA (CRG), priority 2007, published 2011)
Entries after “also recorded” stand apart in the source; their conditions may differ.

What was measured:
Colo205 cells [1] = assay: DEVDase (caspase) activity in Colo205; assay type: cell-based, human; conditions: Colo205, 5 mM aspirin 24 h
Method: (A) Aspirin induces expression of DR5, DcR1 and DcR2 on the cell surface. Colo205 cells were treated with 5 mM aspirin for 24 h and cell surface expression of DR4, DR5, DcR1 and DcR2 was measured by immunostaining and detected with flow cytometry. The histograms shown include isotype control (black, open peak), untreated Colo205 (grey, closed peak) and aspirin-treated Colo205 (grey, open peak) samples. The histograms are representatives of three independent experiments. […] DEVDase activity was expressed as average nmol AMC released per minute by 1 mg total cellular protein±SD of 3 independent experiments.
In order to determine the cell surface expression of each of the TRAIL receptors on A2780 carcinoma cells, cells were washed twice in PBS containing 1% BSA and then incubated with monoclonal antibodies to DR4, DR5, DcR1 or DcR2 (Alexis) for 40 min. After two wash steps with PBS/BSA, anti-mouse IgG-FITC (Sigma) secondary antibody was added for 30 min. All incubations were carried out on ice. Negative controls contained isotype control antibody. Cells were analyzed by a FacsCalibur flow cytometer. […] Substrate cleavage leading to the release of free AMC was monitored at 37° C. at 60 sec intervals for 25 cycles using a Wallac multilabel counter (excitation 355 nm, emission 460 nm). […]

Colo205 cells [2] = assay: Colo205 apoptosis after pre-incubation of ligand with soluble receptor-Ig; assay type: cell-based, human; conditions: 10 ng/ml ligand; for effect of pre-incubation with sDcR1 on pro-apoptotic activity: sDcR1 up to 2 μg/ml
Method: (A) Effect of soluble recombinant DcR1-Ig (sDcR1) on apoptosis induction by TRAIL and DR5-selective variants. […] All graphs are representatives of two independent repeats. (D) Neutralizing antibodies against DcR1 and DcR2 can augment wtTRAIL- but not DR5-variant induced cell death. […] Induction of apoptosis was measured 3 h post-treatment using Annexin V assay. […] The graphs show the average±SEM of three independent experiments.
Induction of cell death was assessed by Annexin V assay 3 h after treatment (FIG. 14), as described above. […] (FIG. 14C). This confirms that the observed differences in blocking efficacy are due to reduced ability of the decoy receptors to bind and inhibit D269H and D269HE195R.

A2780 cells = assay: Microculture tetrazolium cytotoxicity assay in A2780; assay type: cell-based, human; conditions: A2780, 96 h
Method: The microculture tetrazolium assay, performed as described earlier^36, was used to measure cytotoxicity. […] In cell viability assays assessing combination treatment with cisplatin, the cells were pre-incubated for 4 h (h) with 2.5 μM cisplatin (inhibitory concentration 20%-IC20), before addition of 0-25 ng/ml TRAIL or TRAIL-DR5.

Human dermal fibroblasts = assay: MTT viability of human dermal fibroblasts; assay type: cell-based; conditions: 50-500 ng/ml, 24 h
Method: (§1) Human dermal fibroblasts were grown in low glucose DMEM (Sigma) supplemented with 10% fetal calf serum, 50 U/ml penicillin and […] streptomycin; human umbilical vein endothelial cells (HUVEC, PromoCell) were cultured in Endothelial Cell Growth Medium with SupplementMix (PromoCell). Fibroblasts and HUVEC cells were seeded at 1.3×10^5 cells/ml 24 h before treatment with increasing concentrations of TRAIL and DR5-selective variants, D269H and D269HE195R (50-500 ng/ml) for 24 h and cell viability was measured using MTT assay, wherein 200 μg/ml MTT (3-(4,5-dimethylthiazo1-2-yl)-2,5-diphenyl-tetrazolium bromide) was added to control and treated cells and incubated for 3 h at 37° C. The reaction was stopped and the purple formazan precipitate formed was dissolved using dimethyl sulfoxide (DMSO) and the colour intensity was measured at 550 nm on a Wallac multilabel counter. The control value corresponding to untreated cells was taken as 100% and the viability of treated samples was expressed as a percentage of the control. (FIG. 15).

[3] = test system: human umbilical vein endothelial cells (HUVEC); assay: Viability of HUVEC; assay type: cell-based; conditions: for cell viability: 50-500 ng/ml, 24 h, MTT
Method: as §1

SW948 cells = assay: Cell survival / sensitivity of SW948; assay type: cell-based
Caski cells = assay: Cell survival / sensitivity of Caski; assay type: cell-based
SiHa cells = assay: Cell survival / sensitivity of SiHa; assay type: cell-based
Excerpt: (A) Effect of increasing concentration of Bortezomib on cell survival. […] (C) 10Gy Radiotherapy had no effect in further decreasing cell viability of SIHA cells in both TRAIL and DR5 mutant treated cells.

HeLa cells = assay: Cell survival / sensitivity of HeLa; assay type: cell-based
Method: (B) Effect of increasing of Bortezomib on cell viability. Hela cells appear to tolerate higher concentration of Bortezomib compared to Caski and SIHA cells (C) Combination therapy with 10 nM Bortezomib incubated for 24 h lead to further decreases in cell viability in cells treated with both TRAIL and two of the DR5 mutants (D) Radiation therapy in combination with TRAIL or the DR5 mutants further decrease cell viability in HELA cells. The DR5 mutant show decrease cell viability at lower concentration of ligand compared to TRAIL.

Colo205 cells [4] = assay: Annexin V apoptosis in Colo205 after PI3K inhibition; assay type: cell-based, human; conditions: 20 μM LY294002 15-18 hours, ligand 0.1 μg/ml 3 h
Method: Modulation of TRAIL and D269H/E195R induced apoptosis by PI3K inhibition in Colo205, as assessed by Annexin V assay. Cells were pre-incubated for 15-18 hours with 20 μM LY294002, then either left untreated or exposed to rhTRAIL (0.1 μg/ml) or D269H/E195R (0.1 μg/ml) for 3 additional hours before harvest.

DR4 = molecular target: T1, DR4 (Homo sapiens, UniProt O00220); conditions: cited from earlier work
T1 construct: the more commonly used dimeric TRAIL-receptor-IgG Fc chimeric constructs
T1 sequence (O00220 24-239 limits assumed): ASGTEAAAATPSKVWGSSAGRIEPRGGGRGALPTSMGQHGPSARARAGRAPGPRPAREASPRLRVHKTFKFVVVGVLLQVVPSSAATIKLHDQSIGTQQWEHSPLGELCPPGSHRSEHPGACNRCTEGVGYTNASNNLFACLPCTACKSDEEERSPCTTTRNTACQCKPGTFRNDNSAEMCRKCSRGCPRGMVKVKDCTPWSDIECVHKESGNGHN

B1: D269HE195R: rhTRAIL (114-281) carrying mutations D269H and E195R; DR5-selective TRAIL variant (protein)
chain: MVRERGPQRVAAHITGTRGRSNTLSSPNSKNEKALGRKINSWESSRSGHSFLSNLHLRNGELVIHEKGFYYIYSQTYFRFQERIKENTKNDKQMVQYIYKYTSYPDPILLMKSARNSCWSKDAEYGLYSIYQGGIFELKENDRIFVSVTNEHLIDMHHEASFFGAFLVG
sensitisation by aspirin (Colo205 cells [1]): much more pronounced
effect of pre-incubation with sDcR2 on apoptosis induction (Colo205 cells [2]): no complete protection could be achieved
effect of pre-incubation with sDcR1 on pro-apoptotic activity (Colo205 cells [2]): failed to reduce
cell survival / viability (A2780 cells): decreased cell survival more effectively than TRAIL
cell viability (Human dermal fibroblasts): did not result in a decrease in cell viability
cell viability [3]: did not result in a decrease in cell viability
cell viability, single agent (SW948 cells): decreased cell viability
effect of Aspirin (SW948 cells): enhanced the effect
cell viability, single agent (Caski cells): comparable
effect of combination with bortezomib (Caski cells): increased tumor cell death
effect of combination with bortezomib (SiHa cells): increased tumor cell death
sensitivity, single agent (SiHa cells): resistant
cell viability, single agent (HeLa cells): comparable
effect of radiotherapy and Bortezomib on induced apoptosis (HeLa cells): enhanced apoptosis
change of sensitivity after PI3K inhibition (Colo205 cells [4]): enhanced
binding to DR4 (DR4; earlier work referred to): virtually absent

B2: wtTRAIL: wild-type soluble recombinant human TRAIL, amino acids 114-281 (SEQ ID NO: 3) (protein, listed as Homo sapiens)
chain: MVRRGRVAAHTGTRGRSNTSSNSKNKAGRKNSWSSRSGHSSNHRNGVHKGYYYSTYRKNTKNDKMVYYKYTSYDMKSARNSCWSKDAYGYSYGGKNDRVSVTNHDMDHASGAVG
modifications: TRAIL 114-281
sensitisation by aspirin (Colo205 cells [1]): increased the sensitivity
effect of pre-incubation with sDcR2 on apoptosis induction (Colo205 cells [2]): able to block apoptosis induction
effect of pre-incubation with soluble DR5 on pro-apoptotic activity (Colo205 cells [2]): completely block
effect of pre-incubation with sDcR1 on pro-apoptotic activity (Colo205 cells [2]): completely blocked
cell survival / viability (A2780 cells): dose dependent loss of viability
cell viability (Human dermal fibroblasts): Neither wtTRAIL nor the DR5-selective variants had any effect; also recorded: did not result in a decrease in cell viability
cytotoxic effects on noncancerous cells ([3]; 100 ng/ml): no cytotoxic effects were observed
cell viability [3]: Neither wtTRAIL nor the DR5-selective variants had any effect; also recorded: did not result in a decrease in cell viability
cell viability, single agent (SW948 cells): greater loss in cell viability compared to that of the DR5 mutant at higher concentrations
effect of 5-FU on sensitivity (SW948 cells): enhanced sensitivity
sensitivity, single agent comparison (SW948 cells): higher sensitivity
cell viability, single agent (Caski cells): comparable
effect of combination with bortezomib (Caski cells): increased tumor cell death
effect of combination with bortezomib (SiHa cells): increased tumor cell death
sensitivity, single agent (SiHa cells): resistant
cell viability, single agent (HeLa cells): comparable
effect of radiotherapy and Bortezomib on induced apoptosis (HeLa cells): enhanced apoptosis
change of sensitivity after PI3K inhibition (Colo205 cells [4]): slightly decreased
Kd (DR4; surface plasmon resonance, read-out: binding affinity Kd for DR4): 2.5 nM
